Test results published in patent US20240199757A1 (UNIVERSITY OF CHICAGO, published 2024).
Where two headings read alike, the source gives them in different places.

T1: human NT5E expressed on MDA-MB-231 cells (human, UniProt P21589 27-549)
T1 sequence (looked up): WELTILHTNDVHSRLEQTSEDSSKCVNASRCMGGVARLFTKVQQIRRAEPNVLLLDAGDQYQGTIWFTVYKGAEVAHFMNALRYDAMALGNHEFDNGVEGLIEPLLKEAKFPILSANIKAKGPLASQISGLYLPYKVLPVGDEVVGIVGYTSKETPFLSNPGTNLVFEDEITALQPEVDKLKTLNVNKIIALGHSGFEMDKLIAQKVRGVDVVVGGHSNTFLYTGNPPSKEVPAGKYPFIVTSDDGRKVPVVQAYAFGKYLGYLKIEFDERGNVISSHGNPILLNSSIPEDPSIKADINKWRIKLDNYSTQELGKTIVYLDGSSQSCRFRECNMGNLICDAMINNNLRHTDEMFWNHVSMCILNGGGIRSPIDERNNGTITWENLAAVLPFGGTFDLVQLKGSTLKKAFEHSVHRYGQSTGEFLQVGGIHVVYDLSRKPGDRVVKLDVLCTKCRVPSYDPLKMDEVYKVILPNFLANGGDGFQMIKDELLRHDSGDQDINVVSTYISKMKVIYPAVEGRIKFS

T2: Full-length human NT5E (recombinant, in-house) (human, UniProt P21589 27-549)
T2 construct: also called hNT5E; hNT5EWT
T2 sequence: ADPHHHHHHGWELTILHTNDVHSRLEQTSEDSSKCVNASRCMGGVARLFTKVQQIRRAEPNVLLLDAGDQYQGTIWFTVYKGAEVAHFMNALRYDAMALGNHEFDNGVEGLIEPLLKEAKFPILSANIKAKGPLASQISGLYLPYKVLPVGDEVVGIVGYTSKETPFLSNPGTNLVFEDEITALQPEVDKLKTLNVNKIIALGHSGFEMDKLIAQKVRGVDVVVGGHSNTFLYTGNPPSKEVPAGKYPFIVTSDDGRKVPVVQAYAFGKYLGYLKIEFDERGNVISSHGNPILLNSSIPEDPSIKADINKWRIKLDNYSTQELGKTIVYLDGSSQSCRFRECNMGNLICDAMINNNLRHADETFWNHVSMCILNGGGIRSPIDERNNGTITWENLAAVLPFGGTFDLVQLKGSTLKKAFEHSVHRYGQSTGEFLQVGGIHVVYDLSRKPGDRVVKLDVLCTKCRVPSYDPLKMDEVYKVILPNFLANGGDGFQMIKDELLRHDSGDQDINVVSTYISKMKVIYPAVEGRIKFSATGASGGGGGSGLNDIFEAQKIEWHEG

T3: Full-length murine NT5E (recombinant) (murine, UniProt Q61503 29-552)
T3 construct: also called mNT5E
T3 sequence: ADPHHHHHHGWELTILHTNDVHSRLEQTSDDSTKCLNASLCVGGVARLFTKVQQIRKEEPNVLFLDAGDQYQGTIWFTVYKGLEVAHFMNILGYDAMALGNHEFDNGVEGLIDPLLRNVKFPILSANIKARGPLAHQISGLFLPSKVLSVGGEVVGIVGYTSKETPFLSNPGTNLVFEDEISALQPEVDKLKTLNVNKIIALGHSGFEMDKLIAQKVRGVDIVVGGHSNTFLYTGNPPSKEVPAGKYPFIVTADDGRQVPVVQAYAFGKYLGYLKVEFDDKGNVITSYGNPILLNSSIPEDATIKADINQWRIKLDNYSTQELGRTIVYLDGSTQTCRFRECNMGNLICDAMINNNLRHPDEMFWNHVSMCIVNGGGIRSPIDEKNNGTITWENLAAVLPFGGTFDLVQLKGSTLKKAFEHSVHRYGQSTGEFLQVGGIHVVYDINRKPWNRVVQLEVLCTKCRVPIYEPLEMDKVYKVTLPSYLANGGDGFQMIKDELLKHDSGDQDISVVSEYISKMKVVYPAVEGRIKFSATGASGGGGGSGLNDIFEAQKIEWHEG

B1: Medi9447 IgG (antibody, V domains shown)
VH: EVQLLESGGGLVQPGGSLRLSCAASGFTFSSYAYSWVRQAPGKGLEWVSAISGSGGRTYYADSVKGRFTISRDNSKNTLYLQMNSLRAEDTAVYYCARLGYGRVDEWGRGTLVTVSS
VL: QSVLTQPPSASGTPGQRVTISCSGSLSNIGRNPVNWYQQLPGTAPKLLIYLDNLRLSGVPDRFSGSKSGTSASLAISGLQSEDEADYYCATWDDSHPGWTFGGGTKLTVLG
B2: 1789 AM32 Fab (Fab, V domains shown)
VH: EVQLVESGGGLVQPGGSLRLSCAASGFNVSYSSIHWVRQAPGKGLEWVARIRGNEGDTYYADSVKGRFTISADTSKNTAYLQMNSLRAEDTAVYYCARNYWGWYPFYYFAFDYWGQGTLVTV
VL: DIQMTQSPSSLSASVGDRVTITCRASQSVSSAVAWYQQKPGKAPKLLIYSASSLYSGVPSRFSGSRSGTDFTLTISSLQPEDFATYYCQQGWDYPITFGQGTKVEIKR
notes: also called Fab32
B3: 1557 Fab (Fab, V domains shown)
VH: EVQLVESGGGLVQPGGSLRLSCAASGFNVYYSSIHWVRQAPGKGLEWVASISSSSGSTSYADSVKGRFTISADTSKNTAYLQMNSLRAEDTAVYYCARYGWWEYGYGGWWHPALDYWGQGTLVTV
VL: DIQMTQSPSSLSASVGDRVTITCRASQSVSSAVAWYQQKPGKAPKLLIYSASSLYSGVPSRFSGSRSGTDFTLTISSLQPEDFATYYCQQVWWGPITFGQGTKVEIKR
B4: 1780 IgG (antibody, V domains shown)
VH: EVQLVESGGGLVQPGGSLRLSCAASGFNFYSYSIHWVRQAPGKGLEWVASISSSSGYTYYADSVKGRFTISADTSKNTAYLQMNSLRAEDTAVYYCARYSWWGWHMEGWWGYMNAFDYWGQGTLVTVSS
VL: DIQMTQSPSSLSASVGDRVTITCRASQSVSSAVAWYQQKPGKAPKLLIYSASSLYSGVPSRFSGSRSGTDFTLTISSLQPEDFATYYCQQAHPKPITFGQGTKVEIKR
B5: 1789 AM39 Fab (Fab, V domains shown)
VH: EVQLVESGGGLVQPGGSLRLSCAASGFNVSYSSIHWVRQAPGKGLEWVASIRGAGSDTRYADSVKGRFTISADTSKNTAYLQMNSLRAEDTAVYYCARNYWGWYPFYYFAFDYWGQGTLVTV
VL: DIQMTQSPSSLSASVGDRVTITCRASQSVSSAVAWYQQKPGKAPKLLIYSASSLYSGVPSRFSGSRSGTDFTLTISSLQPEDFATYYCQQGWDYPITFGQGTKVEIKR
B6: 1789 AM42 Fab (Fab, V domains shown)
VH: EVQLVESGGGLVQPGGSLRLSCAASGFNVSYSSIHWVRQAPGKGLEWVAKIRGGHQDTHYADSVKGRFTISADTSKNTAYLQMNSLRAEDTAVYYCARNYWGWYPFYYFAFDYWGQGTLVTV
VL: DIQMTQSPSSLSASVGDRVTITCRASQSVSSAVAWYQQKPGKAPKLLIYSASSLYSGVPSRFSGSRSGTDFTLTISSLQPEDFATYYCQQGWDYPITFGQGTKVEIKR

How the values were obtained:
[1] = target: T1, human NT5E expressed on MDA-MB-231 cells; assay: cell-based or functional assay
[2] = target: T2, Full-length human NT5E (recombinant, …); assay: SPR, His-captured NT5E, no ATP
Protocol: (§1) All SPR experiments were performed at 25° C. using MASS-1 (Bruker) instrument. hNT5E, mNT5E and cNT5E were immobilized onto a nitrilotriacetic acid (NTA) sensor chip via His-tag. For kinetic experiments, after ligand immobilization, 2-fold serial dilutions of the Fabs were injected. After double-reference subtraction data were analyzed with BiaEvaluation (GE Healthcare) or Sierra Analyser (Bruker) software. The experiments were carried in buffers in presence and absence of 1 mM ATP to compare the kinetic parameters of the Fabs binding to closed and open form of NT5E.

[3] = target: T3, Full-length murine NT5E (recombinant); assay: SPR, His-captured NT5E, no ATP
Protocol: as §1

[4] = target: T2, Full-length human NT5E (recombinant, …); assay: SPR, His-captured NT5E, 1 mM ATP
Protocol: as §1

[5] = target: T3, Full-length murine NT5E (recombinant); assay: SPR, His-captured NT5E, 1 mM ATP
Protocol: as §1

[6] = target: T2, Full-length human NT5E (recombinant, …); assay: SPR, hNT5E-6xHis on NTA chip, primary Fab injection; Fab concentration and ATP condition not given
Protocol: After incubation, the remaining NT5E is probed with αStrep-HRP Ab. If there is competition for binding to NT5E, then a decrease in signal would be expected.
as §1

[7] = target: T1, human NT5E expressed on MDA-MB-231 cells; assay: cell-based or functional assay; remark: listed apart in the source
[8] = target: T1, human NT5E expressed on MDA-MB-231 cells; assay: flow cytometry on MDA-MB-231 cells, 1 mM ATP
Protocol: (§2) Flow cytometry analysis of antibodies binding to human NT5E expressed on MDA-MB-231 cells in ATP-free condition (black) or in 1 mM ATP (red). Top panel: (left) 1780 Fab and (right) 1780 IgG titrations. […] Binding was measured at the indicated range of antibody concentrations and is expressed as mean±st. dev of median fluorescence intensity (MFI) of 1-2 replicates. Data were analyzed using OriginLab, and EC₅₀ values are shown next to the fitted curves.
(§3) Human MDA-MB-231 cells and murine 4T1 cells were grown to 90% confluency, detached with 5 mM EDTA for 15 min at 37° C. and then resuspended in 37° C. lx PBS (#10010031, Gibco) supplemented with 1% FBS and 1OpM ZnCl2. Separate working buffers (WB) of PBS and 1% FBS with or without fixed nucleotide concentrations were used throughout all washing steps to maintain constant condition. In 96-well plates (#3799, Costar), 0.2×10⁶ cells were added per well. The plates were spun at 500×g for 5 min and the supernatant was removed. Anti-NT5E antibodies were diluted to the desired concentration in 100 μL WB, added to the cells and the plates were incubated for 20 min at 37° C. Plates were spun and cells were washed twice with WB then spun a second time. Cells were stained with 100 μL of secondary antibody (Alexa Fluor 647 AffiniPure Goat Anti-Human IgG, F(ab′)2 fragment specific, #109-605-006, Jackson, 1:200) dilution and plates were incubated for 20 min at 37° C. Cells were washed twice with WB then fixed on ice with WB supplemented with 0.5% PFA. Fixing solution was removed by centrifugation and cells were resuspended in cold 1× PBS. Samples were analyzed by flow cytometry using CytoFLEX (Beckman Coulter) and mean fluorescence intensity (MFI) data was extracted using FlowJo software. Resulting binding data was plotted using OriginLab.

[9] = target: T1, human NT5E expressed on MDA-MB-231 cells; assay: flow cytometry on MDA-MB-231 cells, 1 mM ATP; remark: listed apart in the source
Protocol: as §2, §3

[10] = target: T3, Full-length murine NT5E (recombinant); assay: SPR, His-captured NT5E, no ATP (* Data generated poor fits)
Protocol: as §1

Row | Binder | IC50 of NT5E activity on MDA-MB-231 cells, no ATP [1] | IC50 of NT5E activity on MDA-MB-231 cells, with ATP [1] | Kd [2] | koff [2] | kon [2] | Kd [3] | koff [3] | kon [3] | Kd [4] | koff [4] | kon [4] | Kd [5] | koff [5] | kon [5] | binding result [6] | IC50 of NT5E phosphate production on MDA-MB-231 cells, +500 µM ATP [7] | EC50 [8] | EC50 [9] | Kd [10]
1 | B1 | 0.3 nM | 1 nM |  |  |  |  |  |  |  |  |  |  |  |  |  |  |  |  | 
2 | B2 |  |  | 86 nM | 0.0091 s⁻¹ | 110000 M⁻¹ s⁻¹ | 150 nM | 0.011 s⁻¹ | 78000 M⁻¹ s⁻¹ | 15 nM | 0.0042 s⁻¹ | 270000 M⁻¹ s⁻¹ | 15 nM | 0.0028 s⁻¹ | 190000 M⁻¹ s⁻¹ |  |  |  |  | 
3 | B3 |  |  |  |  |  |  |  |  |  |  |  |  |  |  | binds |  |  |  | 
4 | B4 |  |  |  |  |  |  |  |  |  |  |  |  |  |  |  | 50.5 nM | 28 nM | 19.6 nM | 
5 | B5 |  |  | 35 nM | 0.0099 s⁻¹ | 280000 M⁻¹ s⁻¹ |  | 0.013 s⁻¹ | 140000 M⁻¹ s⁻¹ | 7.9 nM | 0.0039 s⁻¹ | 490000 M⁻¹ s⁻¹ | 12 nM | 0.0035 s⁻¹ | 290000 M⁻¹ s⁻¹ |  |  |  |  | 99 nM
6 | B6 |  |  | 38 nM | 0.0067 s⁻¹ | 180000 M⁻¹ s⁻¹ | 63 nM | 0.012 s⁻¹ | 190000 M⁻¹ s⁻¹ | 11 nM | 0.0036 s⁻¹ | 320000 M⁻¹ s⁻¹ | 12 nM | 0.0029 s⁻¹ | 250000 M⁻¹ s⁻¹ |  |  |  |  | 
